One substance from patent US8927205 can be followed below.

The target in test [1] is TNFR1-Fas receptor chimera on mouse fibroblasts from TNFR1/TNFR2 double-knockout mice (MF TNFR1-Fas cells) (UniProt P19438). Description: cell-based or functional assay.
Test [2] deals with normal human wild-type TNF receptors on Kym1 cells. The test can be described thus: cell-based or functional assay.

Chain of TNFR1-Fas receptor chimera on mouse fibroblasts from TNFR1/TNFR2 double-knockout mice (MF TNFR1-Fas cells) (P19438 other isoform, or with tags, fused parts or gaps mutant limits assumed): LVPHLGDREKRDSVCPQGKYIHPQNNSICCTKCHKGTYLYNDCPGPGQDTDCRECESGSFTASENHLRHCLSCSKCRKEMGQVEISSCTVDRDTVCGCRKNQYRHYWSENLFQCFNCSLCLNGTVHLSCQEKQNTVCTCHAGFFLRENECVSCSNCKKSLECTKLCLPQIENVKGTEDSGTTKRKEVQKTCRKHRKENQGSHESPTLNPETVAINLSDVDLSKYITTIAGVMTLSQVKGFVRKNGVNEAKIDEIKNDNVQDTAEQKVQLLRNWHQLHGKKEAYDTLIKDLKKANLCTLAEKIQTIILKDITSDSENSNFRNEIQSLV

For “soluble human wild-type TNF (from UniProt P01375 57-233) (ligand)”, in test [1], the ED50 (half-maximal effective concentration), cytotoxicity on MF TNFR1-Fas cells, freshly prepared dilutions stood at 0.2 ng/mL; the ED50, cytotoxicity on MF TNFR1-Fas cells, dilutions stored 8 days at 37° C. before the test came to 2 ng/mL; the ED50, cytotoxicity on MF TNFR1-Fas cells, solutions stored 14 days at 37° C. before the test stood at 2.8 ng/mL. In addition, in test [2], the ED50, cytotoxicity on Kym1 cells, solutions stored 16 days at 37° C. (FIG. 8) came to 1.2 ng/mL; the ED50 after 8 days (FIG. 12), stored at 37° C. in 100% human serum, cytotoxicity on Kym1 cells was 0.4 ng/mL; the ED50 after 22 days (FIG. 9), cytotoxicity on Kym1 cells, samples stored at 37° C. was determined as 1.5 ng/mL; the ED50 freshly titrated (FIG. 7), cytotoxicity on Kym1 cells was 0.1 ng/mL. The same substance showed an ED50 freshly titrated (FIG. 11), diluted in 100% human serum, cytotoxicity on Kym1 cells in test [2] of 0.004 ng/mL.
